The values below come from paper PMC6351631, “Biochemical and Proteomic Characterization of Recombinant Human α/β Hydrolase Domain 6” (Scientific Reports, 2019).

The target of data set [1] is T1, human alpha/beta hydrolase domain 6 (hABHD6) (Homo sapiens, UniProt Q9BV23, DEL38-40).
T1 construct: gene ABHD6; hΔ29-3-ABHD6 (first 29 residues and Y38YW deleted, N-terminal His6) for MS; full-length hABHD6 in solubilized E. coli membrane fraction for IC50
T1 sequence (Q9BV23 with tags, fused parts or gaps DEL38-40): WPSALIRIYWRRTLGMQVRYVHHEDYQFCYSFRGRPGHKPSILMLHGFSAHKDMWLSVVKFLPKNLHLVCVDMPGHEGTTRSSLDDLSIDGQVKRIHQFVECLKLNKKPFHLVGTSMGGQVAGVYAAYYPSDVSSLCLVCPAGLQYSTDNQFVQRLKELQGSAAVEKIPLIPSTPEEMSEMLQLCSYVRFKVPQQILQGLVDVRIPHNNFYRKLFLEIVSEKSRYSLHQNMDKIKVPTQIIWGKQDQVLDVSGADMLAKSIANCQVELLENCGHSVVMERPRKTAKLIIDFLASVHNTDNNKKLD
The experiment in a line: MALDI-TOF MS of tryptic digest showing +[…] Da adduct on purified enzyme; fluorometric AHMMCE inhibition assay. Format: binding.

Substrate in data set [2]: CCCCC/C=C\C/C=C\C/C=C\C/C=C\CCCC(=O)OC(CO)CO
Briefly: HPLC quantification of arachidonic acid formed, Michaelis-Menten kinetics (Km). Format: biochemical, Homo sapiens.

Take `CN(C)C(=O)n1nnc(Cc2ccc(-c3ccccc3)cc2)n1` [AM6701]: in data set [1], the IC50 – broadly, the midpoint of a concentration-inhibition curve – came to 900 pM.

B1: human alpha/beta hydrolase domain 6 (hABHD6) (Homo sapiens; DEL38-40) (protein)
chain: T1 sequence (Q9BV23 with tags, fused parts or gaps DEL38-40)
Turning to B1, in data set [2], the Km (as a rule, the substrate concentration at which the rate is half of its maximum) amounted to 139 µM and the Vmax (in general, the top rate of the reaction or transport when substrate is in excess) was 0.35 µM/min/mg.
